Results as given in patent US20210054076A1 (Chugai, published 2021).
Positions count from the first letter of the chain named.

Tests used:
hCLDN6(Q156L) = target: T1, hCLDN6(Q156L) (human, UniProt P56747 1-220); assay: FACS on Ba/F3 transfectant, antibody 20 micro g/ml, FITC anti-human IgG
T1 construct: Stably expressed on Ba/F3 cells; also called human CLDN6 mutant; BaF3_hCLDN6(Q156L)
T1 chain: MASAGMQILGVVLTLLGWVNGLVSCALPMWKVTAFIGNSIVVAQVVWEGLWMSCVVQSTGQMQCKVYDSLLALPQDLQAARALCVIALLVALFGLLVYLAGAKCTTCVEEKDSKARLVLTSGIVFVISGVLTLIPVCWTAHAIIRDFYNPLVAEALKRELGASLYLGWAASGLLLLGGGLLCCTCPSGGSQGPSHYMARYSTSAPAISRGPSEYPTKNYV
Description: (§1) To evaluate the binding activity and specificity of the generated CLDN6-TRABs against CLDN6 and other Claudin family antigens, FACS analysis was conducted as follows. Ba/F3 transfectants stably express a kind of protein selected from human CLDN3 (hCLDN3), human CLDN4 (hCLDN4), human CLDN6 (hCLDN6), human CLDN9 (hCLDN9), mouse CLDN3 (mCLDN3), mouse CLDN4 (mCLDN4) and mouse CLDN6 (mCLDN6), were generated using similar method described in WO2008/087978, and named BaF3_hCLDN3, BaF3_hCLDN4, BaF3_hCLDN6, BaF3_hCLDN9, BaF3 mCLDN3, BaF3 mCLDN4, BaF3 mCLDN6, respectively. Each of the CLDN6-TRABs (CH01/CD3, CH02/CD3, CH03/CD3, CH04/CD3) was incubated with the Ba/F3 transfectants at an antibody concentration of 20 micro g/ml in FACS buffer (0.5% BSA containing autoMACS Rinsing Solution, Miltenyl Biotec). Binding activities of each CLDN6-TRAB to the Claudin family proteins (hCLDN3, hCLDN4, hCLDN6, hCLDN9, mCLDN3, mCLDN4, mCLDN6) were examined by incubation of FITC-conjugated goat anti human IgG (BeckmanCoulter), represented as Geo-mean value. Sample processing was conducted on FACSVerse (BD).
(§2) Claudin family proteins have two extracellular domains. The sequence of the first extracellular domain in human CLDN9 is almost the same compared with the first extracellular domain of human CLDN6. For the second extracellular domain of human CLDN9, there are only two amino acids different from the ones at their corresponding positions in human CLDN6 (FIG. 2). The glutamine at position 156 of human Claudin 6 (position 156 in the sequence shown in SEQ ID NO: 44 or 45) was substituted to leucine to make a human CLDN6 mutant comprising the same amino acid as human Claudin 9 at position 156. This human CLDN6 mutant was named as hCLDN6(Q156L) (SEQ ID NO: 53). Ba/F3 transfectant stably express hCLDN6(Q156L) was generated using similar method described in WO2008/087978. The established Ba/F3 transfectant was named BaF3_hCLDN6(Q156L). Binding activity of the generated CLDN6-TRABs against BaF3_hCLDN6(Q156L) was measured using the above mentioned FACS method and the results are shown in FIG. 1 and Table 3.

human CLDN4 = target: T2, human CLDN4 (human, UniProt O14493 1-209); assay: as above
T2 construct: whole, on cells; also called hCLDN4; BaF3_hCLDN4
T2 sequence (looked up): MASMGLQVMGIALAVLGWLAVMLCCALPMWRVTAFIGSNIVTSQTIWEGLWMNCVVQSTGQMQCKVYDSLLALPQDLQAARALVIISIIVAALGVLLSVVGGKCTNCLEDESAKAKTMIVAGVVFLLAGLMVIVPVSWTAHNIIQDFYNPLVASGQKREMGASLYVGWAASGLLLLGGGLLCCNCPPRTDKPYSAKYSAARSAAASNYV
Description: as §1, §2

human CLDN6 [1] = target: T3, human CLDN6 (human, UniProt P56747 1-220); assay: as above
T3 construct: 45 is entered here, 44 is equally possible; also called hCLDN6; human Claudin 6
T3 sequence: T1 chain with L156Q
Description: as §1, §2

mouse CLDN3 = target: T4, mouse CLDN3 (mouse, UniProt Q9Z0G9 1-219); assay: as above
T4 construct: whole, on cells; also called mCLDN3; BaF3_mCLDN3
T4 sequence (looked up): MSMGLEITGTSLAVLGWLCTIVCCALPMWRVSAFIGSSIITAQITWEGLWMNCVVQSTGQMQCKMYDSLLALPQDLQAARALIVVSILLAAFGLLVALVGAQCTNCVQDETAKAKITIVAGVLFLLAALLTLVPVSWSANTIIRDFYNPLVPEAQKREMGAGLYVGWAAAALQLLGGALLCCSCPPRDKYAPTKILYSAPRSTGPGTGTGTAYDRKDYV
Description: as §1, §2

mouse CLDN4 = target: T5, mouse CLDN4 (mouse, UniProt O35054 1-210); assay: as above
T5 construct: whole, on cells; also called mCLDN4; BaF3_mCLDN4
T5 sequence (looked up): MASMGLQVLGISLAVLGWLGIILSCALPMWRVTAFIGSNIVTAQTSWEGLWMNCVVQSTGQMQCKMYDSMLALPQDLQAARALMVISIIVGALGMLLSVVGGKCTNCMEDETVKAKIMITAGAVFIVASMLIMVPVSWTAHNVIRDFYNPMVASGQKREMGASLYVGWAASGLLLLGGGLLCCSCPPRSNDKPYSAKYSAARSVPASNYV
Description: as §1, §2

human CLDN3 = target: T6, human CLDN3 (human, UniProt O15551 1-220); assay: as above
T6 construct: whole, on cells; also called hCLDN3; BaF3_hCLDN3
T6 sequence (looked up): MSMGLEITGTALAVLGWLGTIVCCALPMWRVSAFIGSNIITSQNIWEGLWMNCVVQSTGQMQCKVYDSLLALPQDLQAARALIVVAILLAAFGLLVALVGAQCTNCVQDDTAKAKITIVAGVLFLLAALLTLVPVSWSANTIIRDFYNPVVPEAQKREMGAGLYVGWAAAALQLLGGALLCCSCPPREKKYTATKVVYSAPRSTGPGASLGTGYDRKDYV
Description: as §1, §2

human CLDN6 [2] = target: T3, human CLDN6; assay: cell-based or functional assay

B1: CH01/CD3 (bispecific antibody, human IgG1, kappa, N297A)
heavy 1: EVKLVESGGGLVKPGGSLKLSCAASGFTFNSYTMSWVRQTPAKRLEWVVTISSGGGRTYYPDSVKGRFTISRDNARNTLYLQMSSLRSEDTAMYYCIRGDYRYDGFAYWGQGTLVTVSTASTKGPSVFPLAPSSKSTSGGTAALGCLVKDYFPEPVTVSWNSGALTSGVHTFPAVLQSSGLYSLSSVVTVPSSSLGTQTYICNVNHKPSNTKVDKKVEPKSCDKTHTCPPCPAPELRGGPKVFLFPPKPKDTLMISRTPEVTCVVVDVSHEDPEVKFNWYVDGVEVHNAKTKPREEQYASTYRVVSVLTVLHQDWLNGKEYKCKVSNKALPAPIEKTISKAKGQPREPQVYTLPPSREEMTKNQVSLTCLVKGFYPSDIAVEWESNGQPENNYKTTPPYLDSDGSFFLYSKLTVDKSRWQQGNVFSCSVMHEALHNHYTQESLSLSP
light 1: DIQMTQSPASLSASVGETVTITCRASENIDSYLAWYQQKQGKSPQLLVYASTLLVDGVPSRFSGSRSGTQFSLKINSLQSEDVARYYCQHYYSIPYTFGSGTKLEIKRTVAAPSVFIFPPSDEQLKSGTASVVCLLNNFYPREAKVQWKVDNALQSGNSQESVTEQDSKDSTYSLSSTLTLSKADYEKHKVYACEVTHQGLSSPVTKSFNRGEC
heavy 2: QVQLVESGGGVVQPGGSLRLSCAASGFTFSNAWMHWVRQAPGKGLEWVAQIKDKSQNYATYVAESVKGRFTISRADSKNSIYLQMNSLKTEDTAVYYCRYVHYAAGYGVDIWGQGTTVTVSSASTKGPSVFPLAPSSKSTSGGTAALGCLVKDYFPEPVTVSWNSGALTSGVHTFPAVLQSSGLYSLSSVVTVPSSSLGTQTYICNVNHKPSNTKVDKKVEPKSCDKTHTCPPCPAPELRGGPKVFLFPPKPKDTLMISRTPEVTCVVVDVSHEDPEVKFNWYVDGVEVHNAKTKPREEQYASTYRVVSVLTVLHQDWLNGKEYKCKVSNKALPAPIEKTISKAKGQPREPQVYTLPPSRKEMTKNQVSLTCLVKGFYPSDIAVEWESNGQPENNYKTTPPYLDSDGSFFLYSKLTVDKSRWQQGNVFSCSVMHEALHNHYTQKSLSLSP
light 2: DIVMTQSPLSLPVTPGEPASISCRSSQPLVHSNRNTYLHWYQQKPGQAPRLLIYKVSNRFSGVPDRFSGSGSGTDFTLKISRVEAEDVGVYYCGQGTQVPYTFGQGTKLEIKRTVAAPSVFIFPPSDEQLKSGTASVVCLLNNFYPREAKVQWKVDNALQSGNSQESVTEQDSKDSTYSLSSTLTLSKADYEKHKVYACEVTHQGLSSPVTKSFNRGEC
notes: Made by Fab arm exchange of the bivalent anti-CLDN6 antibody CH01 with the bivalent anti-CD3 antibody CD3-1; human IgG1 constant region; One anti-CLDN6 arm and one anti-CD3 arm; also called CLDN6-TRAB; CLDN6-targeted T-cell redirecting bispecific antibody
- Geo-mean value of FACS (hCLDN6(Q156L)): 114
- Geo-mean value of FACS (human CLDN4): 51
- Geo-mean value of FACS (human CLDN6 [1]): 4480
- Geo-mean value of FACS (mouse CLDN3): 26
- Geo-mean value of FACS (mouse CLDN4): 31
- Geo-mean value of FACS (human CLDN3): 37
- EC50 (read off the curve), Jurkat/NFAT-RE luciferase reporter, target cells HuH-7 (human CLDN6 [2]): ~0.09 nM
